In patent US20200262898A1 (INTEGRAL MOLECULAR, published 2020):

T1: CD59 (UniProt P13987 26-102, limits assumed)
T1 construct: whole, on cells
T1 sequence (looked up): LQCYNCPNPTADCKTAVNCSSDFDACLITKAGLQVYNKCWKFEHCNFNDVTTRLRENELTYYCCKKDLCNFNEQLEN

B1: Antibody of common light chain B9 (B9chicken) paired with the heavy chain against CD59 (antibody, V domains shown)
VH: AVTLDESGGGLQTPGGGLSLVCKASGFDFSSFDMVWVRQAPGKGLEWVAGISYSNTDTSYAPAVDGRATISRDNGQSTVRLQLNNLRAEDSATYYCAKSAGGCCYRADNIDAWGHGTEVIVSS
VL: ALTQPSSVSANPGETVKITCSGGGSSNYYGWYQQKSPGSAPVTLIYGTNKRPSDIPSRFSGSKSGSTGTLTITGVQADDEAVYFCGSADSSTNAGIFGAGTTLTVL
notes: also called HC-CD59
B2: Antibody of common light chain C11 (C11chicken) paired with the heavy chain against CD59 (antibody, V domains shown)
VH: B1 VH
VL: ALTQPSSVSANPGETVKITCSGGGSWYGSYYYGWYQQKSPGSAPVTLIYNNDKRPSDIPSRFSGSESGSTATLTITGVQAEDEAVYFCGGYDSTTTDMFGAGTTLTVL
notes: also called HC-CD59

Key:
CD59 = target: T1, CD59; assay: flow cytometry on cells transfected with the target; signal over mock-transfected cells (background = 1.0)
Description: (§1) Antibodies were generated using the common light chains B9, F10, C11, and H11 paired with 8 different heavy chains. […] Binding is expressed as Signal:Background for binding to the molecular target of the heavy chain antibody (listed at top of Table 4). Expression is based on binding to cells expressing an Fc-binding protein (the ZZ domain of ProA) (ZZ) on their surface, enabling total antibody to bind and be measured. Detection was using flow cytometry with cells transfected to express the target protein. Background binding S:B is normalized to 1.0, using mock-transfected cells as background. The data in the table below illustrate that the light chains can be used with a variety of heavy chains and the antibody generated from a VH that can bind to the light chains B9 and F10 will function and bind to the target of interest.

[1] = target: T2, Fc-binding protein (the ZZ domain of ProA); assay: flow cytometry on cells expressing the Fc-binding ZZ domain on their surface; given as a measure of expression
T2 construct: domain: ZZ domain of ProA; the construct is not described
Description: as §1

S:B Binding (CD59)	S:B Expression [1]	Binder
0.7 S:B	11.8 S:B	B1
1.4 S:B	12.2 S:B	B2
